# IntAct's records for PubMed 22791719
# B1: Phospholipid-transporting ATPase accessory subunit CDC50 (Saccharomyces cerevisiae), P25656 (parent)
# chain: MVSLFKRGKAPPLTKEGPTSKKPPNTAFRQQRLKAWQPILSPQSVLPLLIFVACIFTPIGIGLIVSATKVQDLTIDYSHCDTKASTTAFEDIPKKYIKYHFKSKVENKPQWRLTENENGEQSCELQFEIPNDIKKSIFIYYKITNFYQNHRRYVQSFDTKQILGEPIKKDDLDTSCSPIRSREDKIIYPCGLIANSMFNDTFSQVLSGIDDTEDYNLTNKHISWSIDRHRFKTTKYNASDIVPPPNWMKKYPDGYTDENLPDIHTWEEFQVWMRTAAFPKFYKLTLKNESASLPKGKYQMNIELNYPISLFGGTKSFVLTTNGAIGGRNMSLGVLYLIVAGLCALFGIIFLVKLIFQPRAMGDHTYLNFDDEENEDYEDVHAENTTLREIL
# partner: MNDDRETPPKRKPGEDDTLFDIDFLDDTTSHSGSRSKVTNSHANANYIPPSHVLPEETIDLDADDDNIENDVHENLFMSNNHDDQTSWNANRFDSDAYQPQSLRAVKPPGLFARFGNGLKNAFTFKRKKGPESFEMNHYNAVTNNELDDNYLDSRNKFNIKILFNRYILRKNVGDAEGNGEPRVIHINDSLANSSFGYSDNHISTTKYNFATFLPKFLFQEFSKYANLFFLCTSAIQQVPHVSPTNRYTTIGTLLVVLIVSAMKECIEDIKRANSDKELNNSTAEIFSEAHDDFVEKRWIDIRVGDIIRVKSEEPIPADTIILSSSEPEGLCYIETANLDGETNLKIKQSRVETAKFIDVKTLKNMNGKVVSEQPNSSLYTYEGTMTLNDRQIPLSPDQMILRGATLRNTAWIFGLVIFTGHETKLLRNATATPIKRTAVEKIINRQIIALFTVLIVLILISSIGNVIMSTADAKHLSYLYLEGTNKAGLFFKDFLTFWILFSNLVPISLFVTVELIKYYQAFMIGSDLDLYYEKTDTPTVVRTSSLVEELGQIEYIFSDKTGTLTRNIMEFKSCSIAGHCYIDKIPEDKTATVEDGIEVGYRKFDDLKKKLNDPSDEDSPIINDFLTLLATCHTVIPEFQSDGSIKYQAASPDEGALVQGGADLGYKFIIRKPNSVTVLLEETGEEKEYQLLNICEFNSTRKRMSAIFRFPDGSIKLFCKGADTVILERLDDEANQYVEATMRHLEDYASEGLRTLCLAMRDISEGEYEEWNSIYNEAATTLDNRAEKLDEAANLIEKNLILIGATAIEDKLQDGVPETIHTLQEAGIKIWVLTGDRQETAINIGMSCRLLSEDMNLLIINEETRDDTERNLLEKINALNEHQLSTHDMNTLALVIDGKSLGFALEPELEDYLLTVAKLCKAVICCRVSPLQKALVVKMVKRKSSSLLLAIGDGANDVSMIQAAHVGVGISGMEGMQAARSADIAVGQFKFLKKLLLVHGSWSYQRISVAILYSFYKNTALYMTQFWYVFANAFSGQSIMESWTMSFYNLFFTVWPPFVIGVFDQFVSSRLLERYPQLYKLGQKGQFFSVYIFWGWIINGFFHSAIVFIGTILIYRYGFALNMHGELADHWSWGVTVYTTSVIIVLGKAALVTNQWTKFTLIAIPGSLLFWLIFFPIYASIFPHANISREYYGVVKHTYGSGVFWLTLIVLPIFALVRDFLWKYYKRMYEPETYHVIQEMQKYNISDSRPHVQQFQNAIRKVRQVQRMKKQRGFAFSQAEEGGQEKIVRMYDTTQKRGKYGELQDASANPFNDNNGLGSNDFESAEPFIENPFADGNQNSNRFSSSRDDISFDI
# B2: Phospholipid-transporting ATPase accessory subunit LEM3 (Saccharomyces cerevisiae), P42838 (parent)
# chain: MVNFDLGQVGEVFRRKDKGAIVSGDNPEEEEDVDASEFEEDEVKPVRTKNRRPKEDAFTQQRLAAINPVLTPRTVLPLYLLIAVVFVIVGGCILAQNSKVDEVTIYYQDCMTNATSSWSDIPSEHWQFVFHKYKTYNTAPQWRFVDDESDDFTKQRGTCQIRFTTPSDMKNNVYLNYVLEKFAANHRRYVLSFSEDQIRGEDASYETVHDATGINCKPLSKNADGKIYYPCGLIANSMFNDTFPLQLTNVGDTSNNYSLTNKGINWESDKKRYKKTKYNYTQIAPPPYWEKMYPDGYNETNIPDIQDWEEFQNWMRPGAFDKITKLIRINKNDTLPAGEYQLDIGLHWPVLEFNGKKGIYLTHGSHLGGRNPFLGIVYLIGGCICAAMALILLTFWLFGGRKIADASSLSWNMK
# Variants of: B1
# Details: with atc3_yeast DRS2, P39524
row,effect of a mutation on the interaction,Variant
1,disrupting interaction strength,MVSLFKRGKAPPLTKEGPTSKKPPNTAFRQQRLKAWQPILSPQSVLPLLIFVACIFTPIGIGLIVSATKVQDLTIDYSHADTKASTTAFEDIPKKYIKYHFKSKVENKPQWRLTENENGEQSCELQFEIPNDIKKSIFIYYKITNFYQNHRRYVQSFDTKQILGEPIKKDDLDTSCSPIRSREDKIIYPCGLIANSMFNDTFSQVLSGIDDTEDYNLTNKHISWSIDRHRFKTTKYNASDIVPPPNWMKKYPDGYTDENLPDIHTWEEFQVWMRTAAFPKFYKLTLKNESASLPKGKYQMNIELNYPISLFGGTKSFVLTTNGAIGGRNMSLGVLYLIVAGLCALFGIIFLVKLIFQPRAMGDHTYLNFDDEENEDYEDVHAENTTLREIL [C80A]
2,decreasing interaction strength,MVSLFKRGKAPPLTKEGPTSKKPPNTAFRQQRLKAWQPILSPQSVLPLLIFVACIFTPIGIGLIVSATKVQDLTIDYSHCDTKASTTAFEDIPKKYIKYHFKSKVENKPQWRLTENENGEQSCELQFEIPNDIKKSIFIYYKITNFYQNHRRYVQSFDTKQILGEPIKKDDLDTSCSPIRSREDKIIYPAGLIANSMFNDTFSQVLSGIDDTEDYNLTNKHISWSIDRHRFKTTKYNASDIVPPPNWMKKYPDGYTDENLPDIHTWEEFQVWMRTAAFPKFYKLTLKNESASLPKGKYQMNIELNYPISLFGGTKSFVLTTNGAIGGRNMSLGVLYLIVAGLCALFGIIFLVKLIFQPRAMGDHTYLNFDDEENEDYEDVHAENTTLREIL [C190A]
3,decreasing interaction strength,MVSLFKRGKAPPLTKEGPTSKKPPNTAFRQQRLKAWQPILSPQSVLPLLIFVACIFTPIGIGLIVSATKVQDLTIDYSHCDTKASTTAFEDIPKKYIKYHFKSKVENKPQWRLTENENGEQSCELQFEIPNDIKKSIFIYYKITNFYQNHRRYVQSFDTKQILGEPIKKDDLDTSASPIRSREDKIIYPCGLIANSMFNDTFSQVLSGIDDTEDYNLTNKHISWSIDRHRFKTTKYNASDIVPPPNWMKKYPDGYTDENLPDIHTWEEFQVWMRTAAFPKFYKLTLKNESASLPKGKYQMNIELNYPISLFGGTKSFVLTTNGAIGGRNMSLGVLYLIVAGLCALFGIIFLVKLIFQPRAMGDHTYLNFDDEENEDYEDVHAENTTLREIL [C176A]
4,disrupting interaction strength,MVSLFKRGKAPPLTKEGPTSKKPPNTAFRQQRLKAWQPILSPQSVLPLLIFVACIFTPIGIGLIVSATKVQDLTIDYSHCDTKASTTAFEDIPKKYIKYHFKSKVENKPQWRLTENENGEQSAELQFEIPNDIKKSIFIYYKITNFYQNHRRYVQSFDTKQILGEPIKKDDLDTSCSPIRSREDKIIYPCGLIANSMFNDTFSQVLSGIDDTEDYNLTNKHISWSIDRHRFKTTKYNASDIVPPPNWMKKYPDGYTDENLPDIHTWEEFQVWMRTAAFPKFYKLTLKNESASLPKGKYQMNIELNYPISLFGGTKSFVLTTNGAIGGRNMSLGVLYLIVAGLCALFGIIFLVKLIFQPRAMGDHTYLNFDDEENEDYEDVHAENTTLREIL [C123A]

# Variants of: B2
# Details: with atc5_yeast DNF1, P32660
# atc5_yeast DNF1, P32660, sequence (P32660 whole entry): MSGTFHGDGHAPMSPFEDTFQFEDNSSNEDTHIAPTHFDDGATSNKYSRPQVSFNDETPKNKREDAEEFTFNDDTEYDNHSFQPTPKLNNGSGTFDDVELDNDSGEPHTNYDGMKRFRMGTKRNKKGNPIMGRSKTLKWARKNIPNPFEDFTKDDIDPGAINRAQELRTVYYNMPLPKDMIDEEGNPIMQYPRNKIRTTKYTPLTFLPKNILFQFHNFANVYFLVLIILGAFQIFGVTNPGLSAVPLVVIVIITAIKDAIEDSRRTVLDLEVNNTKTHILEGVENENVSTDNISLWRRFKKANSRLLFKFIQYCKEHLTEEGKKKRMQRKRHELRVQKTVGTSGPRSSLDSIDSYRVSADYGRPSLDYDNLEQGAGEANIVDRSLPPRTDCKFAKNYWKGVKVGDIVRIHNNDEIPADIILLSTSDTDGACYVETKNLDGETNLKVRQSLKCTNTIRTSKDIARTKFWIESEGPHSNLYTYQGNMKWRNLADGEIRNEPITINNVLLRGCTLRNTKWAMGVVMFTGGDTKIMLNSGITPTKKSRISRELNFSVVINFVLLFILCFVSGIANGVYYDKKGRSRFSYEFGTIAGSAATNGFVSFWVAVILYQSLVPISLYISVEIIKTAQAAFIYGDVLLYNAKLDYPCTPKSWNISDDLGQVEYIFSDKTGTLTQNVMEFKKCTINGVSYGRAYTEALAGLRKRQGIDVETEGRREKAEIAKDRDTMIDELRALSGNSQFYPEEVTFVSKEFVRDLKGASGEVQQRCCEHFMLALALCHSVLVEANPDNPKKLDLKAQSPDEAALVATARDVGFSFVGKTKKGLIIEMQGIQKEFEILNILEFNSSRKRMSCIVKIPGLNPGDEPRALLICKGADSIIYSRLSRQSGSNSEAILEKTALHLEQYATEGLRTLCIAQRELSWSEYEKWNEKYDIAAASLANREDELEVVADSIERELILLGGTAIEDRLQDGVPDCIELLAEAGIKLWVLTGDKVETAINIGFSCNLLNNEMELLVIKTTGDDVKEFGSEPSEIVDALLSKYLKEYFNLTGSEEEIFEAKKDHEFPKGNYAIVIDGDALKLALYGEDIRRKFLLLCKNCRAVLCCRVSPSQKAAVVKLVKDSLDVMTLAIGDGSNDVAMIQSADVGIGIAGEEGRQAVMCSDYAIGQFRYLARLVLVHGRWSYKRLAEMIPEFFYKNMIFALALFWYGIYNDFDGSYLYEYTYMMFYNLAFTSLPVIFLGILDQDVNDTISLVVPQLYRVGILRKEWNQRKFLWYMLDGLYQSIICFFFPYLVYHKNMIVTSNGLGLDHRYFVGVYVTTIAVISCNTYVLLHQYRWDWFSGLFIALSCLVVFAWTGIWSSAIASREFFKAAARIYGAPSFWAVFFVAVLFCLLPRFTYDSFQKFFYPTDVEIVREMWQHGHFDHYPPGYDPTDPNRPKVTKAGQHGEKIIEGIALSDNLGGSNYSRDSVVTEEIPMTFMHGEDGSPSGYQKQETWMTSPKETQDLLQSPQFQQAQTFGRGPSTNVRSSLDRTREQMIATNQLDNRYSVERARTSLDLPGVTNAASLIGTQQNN
row,Variant,effect of a mutation on the interaction
1,MVNFDLGQVGEVFRRKDKGAIVSGDNPEEEEDVDASEFEEDEVKPVRTKNRRPKEDAFTQQRLAAINPVLTPRTVLPLYLLIAVVFVIVGGCILAQNSKVDEVTIYYQDCMTNATSSWSDIPSEHWQFVFHKYKTYNTAPQWRFVDDESDDFTKQRGTCQIRFTTPSDMKNNVYLNYVLEKFAANHRRYVLSFSEDQIRGEDASYETVHDATGINCKPLSKNADGKIYYPCGLIANSMFNDTFPLQLTNVGDTSNNYSLTNKGINWESDKKRYKKTKYNYTQIAPPPYWEKMYPDGYNETNIPDIQDWEEFQNWMRPGAFDKITKLIRINKNDTLPAGEYQLDIGLHWPVLEFNGKKGIYLTHGSHLGGRNPFLGIVYLIGGCICAAMALILLTFWLFGGRKIVDASSLSWNMK [A404V],disrupting interaction strength
2,MVNFDLGQVGEVFRRKDKGAIVSGDNPEEEEDVDASEFEEDEVKPVRTKNRRPKEDAFTQQRLAAINPVLTPRTVLPLYLLIAVVFVIVGGCILAQNSKVDEVTIYYQDCMTNATSSWSDIPSEHWQFVFHKYKTYNTAPQWRFVDDESDDFTKQRGTCQIRFTTPSDMKNNVYLNYVLEKFAANHRRYVLSFSEDQIRGEDASYETVHDATGINCKPLSKNADGKIYYPAGLIANSMFNDTFPLQLTNVGDTSNNYSLTNKGINWESDKKRYKKTKYNYTQIAPPPYWEKMYPDGYNETNIPDIQDWEEFQNWMRPGAFDKITKLIRINKNDTLPAGEYQLDIGLHWPVLEFNGKKGIYLTHGSHLGGRNPFLGIVYLIGGCICAAMALILLTFWLFGGRKIADASSLSWNMK [C231A],decreasing interaction strength

# The remaining lines, values ahead:
row,effect of a mutation on the interaction,Variant
1,disrupting interaction strength,MVNFDLGQVGEVFRRKDKGAIVSGDNPEEEEDVDASEFEEDEVKPVRTKNRRPKEDAFTQQRLAAINPVLTPRTVLPLYLLIAVVFVIVGGCILAQNSKVDEVTIYYQDCMTNATSSWSDIPSEHWQFVFHKYKTYNTAPQWRFVDDESDDFTKQRGTCQIRFTTPSDMKNNVYLNYVLEKFAANHRRYVLSFSEDQIRGEDASYETVHDATGINCKPLSKNADGKIYYPCGLIANLMFNDTFPLQLTNVGDTSNNYSLTNKGINWESDKKRYKKTKYNYTQIAPPPYWEKMYPDGYNETNIPDIQDWEEFQNWMRPGAFDKITKLIRINKNDTLPAGEYQLDIGLHWPVLEFNGKKGIYLTHGSHLGGRNPFLGIVYLIGGCICAAMALILLTFWLFGGRKIADASSLSWNMK [S237L]
2,disrupting interaction strength,MVNFDLGQVGEVFRRKDKGAIVSGDNPEEEEDVDASEFEEDEVKPVRTKNRRPKEDAFTQQRLAAINPVLTPRTVLPLYLLIAVVFVIVGGCILAQNSKVDEVTIYYQDAMTNATSSWSDIPSEHWQFVFHKYKTYNTAPQWRFVDDESDDFTKQRGTCQIRFTTPSDMKNNVYLNYVLEKFAANHRRYVLSFSEDQIRGEDASYETVHDATGINCKPLSKNADGKIYYPCGLIANSMFNDTFPLQLTNVGDTSNNYSLTNKGINWESDKKRYKKTKYNYTQIAPPPYWEKMYPDGYNETNIPDIQDWEEFQNWMRPGAFDKITKLIRINKNDTLPAGEYQLDIGLHWPVLEFNGKKGIYLTHGSHLGGRNPFLGIVYLIGGCICAAMALILLTFWLFGGRKIADASSLSWNMK [C110A]
